Blank lines part the entries; values can stand above or below the binder they belong to.
Experiments:
[1] = biological target: T1, GST-KIAA0807(S) PDZ domain 1 (Homo sapiens (Human)), Q6P0Q8; test: G assay titration, PDZ 0.1 ug/ml
T1 chain: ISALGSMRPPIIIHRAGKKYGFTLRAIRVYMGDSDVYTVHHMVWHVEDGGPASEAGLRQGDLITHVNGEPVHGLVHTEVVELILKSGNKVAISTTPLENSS

[2] = biological target: GST-KIAA1634 PDZ domain 4 (Homo sapiens (Human)), Q5TCQ9; test: G' assay; note: key of the grades not given here
[3] = biological target: T2, GST-KIAA1526 PDZ domain 1 (Homo sapiens (Human)), Q9P202; test: G' assay; note: key of the grades not given here
T2 chain: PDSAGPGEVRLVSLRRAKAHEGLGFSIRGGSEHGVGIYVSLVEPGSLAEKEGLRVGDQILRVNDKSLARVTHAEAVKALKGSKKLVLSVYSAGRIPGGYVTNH

[4] = biological target: T3, GST-KIAA0973 PDZ domain 1 (Homo sapiens (Human)), Q9Y2H9; test: G' assay; note: key of the grades not given here
T3 chain: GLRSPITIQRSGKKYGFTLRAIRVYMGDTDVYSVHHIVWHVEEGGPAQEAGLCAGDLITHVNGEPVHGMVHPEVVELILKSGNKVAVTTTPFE

[5] = biological target: T4, GST-MUPP1 PDZ domain 10 (Homo sapiens (Human)), O75970; test: G' assay; note: key of the grades not given here
T4 chain: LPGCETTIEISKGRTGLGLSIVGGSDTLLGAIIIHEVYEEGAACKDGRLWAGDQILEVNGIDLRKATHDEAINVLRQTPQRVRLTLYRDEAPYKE

[6] = biological target: T5, GST-ZO-3 PDZ domain 3 (Homo sapiens (Human)), O95049; test: G' assay; note: key of the grades not given here
T5 chain: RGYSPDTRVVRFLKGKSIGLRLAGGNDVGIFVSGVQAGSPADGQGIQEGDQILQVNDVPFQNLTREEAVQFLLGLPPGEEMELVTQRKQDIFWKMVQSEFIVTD

[7] = biological target: GST-BAI-1 Associated Protein PDZ domain 5 (Homo sapiens (Human)), Q96QZ7; test: G' assay; note: key of the grades not given here
[8] = biological target: T6, GST-ERBIN PDZ domain 1 (Homo sapiens (Human)), Q96RT1; test: G' assay; note: key of the grades not given here
T6 chain: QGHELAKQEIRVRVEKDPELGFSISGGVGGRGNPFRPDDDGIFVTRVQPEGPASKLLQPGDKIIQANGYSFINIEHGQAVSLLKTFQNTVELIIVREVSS

[9] = biological target: T7, GST-NeDLG PDZ domain 3 (Mus musculus (Mouse)), P70175; test: G' assay; note: key of the grades not given here
T7 chain: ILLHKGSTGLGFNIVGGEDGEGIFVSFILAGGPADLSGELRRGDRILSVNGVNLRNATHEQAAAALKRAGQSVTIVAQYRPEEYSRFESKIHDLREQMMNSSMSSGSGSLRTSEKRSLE

[10] = biological target: T8, GST-DLG1 PDZ domain 2 (Homo sapiens), Q12959; test: G' assay; note: key of the grades not given here
T8 chain: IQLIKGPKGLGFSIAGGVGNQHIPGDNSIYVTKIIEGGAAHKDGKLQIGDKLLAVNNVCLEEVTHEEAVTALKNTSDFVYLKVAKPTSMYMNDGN

[11] = biological target: GST-KIAA807 [GST: P08515]; test: G' assay; note: key of the grades not given here
[12] = biological target: T9, GST-KIAA0380 PDZ domain 1 (Homo sapiens (Human)), O15085; test: G' assay; note: key of the grades not given here
T9 chain: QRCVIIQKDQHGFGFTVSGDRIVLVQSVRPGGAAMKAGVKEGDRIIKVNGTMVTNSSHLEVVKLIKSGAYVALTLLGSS

[13] = biological target: T10, GST-INADL PDZ domain 8 (Homo sapiens (Human)), Q8NI35; test: G' assay; note: key of the grades not given here
T10 chain: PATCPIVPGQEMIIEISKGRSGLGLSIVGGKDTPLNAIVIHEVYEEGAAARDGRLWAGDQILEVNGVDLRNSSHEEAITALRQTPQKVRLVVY

[14] = biological target: T11, GST-TIP1 PDZ domain 1 (Table 9 insert) (Homo sapiens (Human)), O14907; test: G' assay; note: key of the grades not given here
T11 chain: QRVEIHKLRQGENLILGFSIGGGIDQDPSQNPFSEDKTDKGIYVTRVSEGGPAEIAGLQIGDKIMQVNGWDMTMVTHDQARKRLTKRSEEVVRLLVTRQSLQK

[15] = biological target: T12, GST-Syntrophin 1 alpha PDZ domain 1 (Homo sapiens (Human)), Q13424; test: G' assay; note: key of the grades not given here
T12 chain: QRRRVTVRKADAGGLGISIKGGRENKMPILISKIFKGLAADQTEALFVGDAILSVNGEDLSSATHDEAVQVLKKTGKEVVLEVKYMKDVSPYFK

[16] = biological target: T1, GST-KIAA0807(S) PDZ domain 1 (Homo …); test: G' assay; note: key of the grades not given here
[17] = biological target: T13, GST-Outer Membrane PDZ domain 1 (Homo sapiens (Human)), P57105; test: G' assay; note: key of the grades not given here
T13 chain: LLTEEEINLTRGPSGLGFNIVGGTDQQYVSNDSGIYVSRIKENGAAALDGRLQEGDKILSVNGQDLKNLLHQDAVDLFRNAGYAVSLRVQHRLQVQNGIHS

[18] = biological target: GST-KIAA1634 PDZ domain 4 (Homo sapiens (Human)), Q5TCQ9; test: G assay titration, PDZ 5 ug/ml
[19] = biological target: T6, GST-ERBIN PDZ domain 1 (Homo sapiens …); test: G assay titration, PDZ 5 ug/ml
[20] = biological target: T14, GST-MINT1 PDZ domains 1, 2, Q02410; test: G' assay; note: key of the grades not given here
T14 chain: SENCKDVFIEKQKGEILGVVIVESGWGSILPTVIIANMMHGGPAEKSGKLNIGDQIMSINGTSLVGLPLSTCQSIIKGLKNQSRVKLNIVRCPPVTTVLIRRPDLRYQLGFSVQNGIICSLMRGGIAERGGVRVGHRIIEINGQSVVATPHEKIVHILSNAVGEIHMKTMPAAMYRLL

[21] = biological target: GST-KIAA1634 PDZ domain 1 (Homo sapiens (Human)), Q5TCQ9; test: G' assay; note: key of the grades not given here
[22] = biological target: T15, GST-KIAA1719 PDZ domain 5 (Homo sapiens (Human)), Q9C0E4; test: G' assay; note: key of the grades not given here
T15 chain: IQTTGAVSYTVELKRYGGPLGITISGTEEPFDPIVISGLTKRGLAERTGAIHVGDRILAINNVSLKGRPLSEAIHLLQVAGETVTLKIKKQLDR

[23] = biological target: GST-TAX IP2 PDZ domain 1 [GST: P08515]; test: G' assay; note: key of the grades not given here
[24] = biological target: T16, GST-KIAA1719 PDZ domain 2 (Homo sapiens (Human)), Q9C0E4; test: G' assay; note: key of the grades not given here
T16 chain: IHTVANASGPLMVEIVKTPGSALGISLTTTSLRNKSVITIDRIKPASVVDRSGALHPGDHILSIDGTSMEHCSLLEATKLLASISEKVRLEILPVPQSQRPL

Sequence of GST-KIAA1634 PDZ domain 4 (Homo sapiens (Human)), Q5TCQ9 (Q5TCQ9 844-945): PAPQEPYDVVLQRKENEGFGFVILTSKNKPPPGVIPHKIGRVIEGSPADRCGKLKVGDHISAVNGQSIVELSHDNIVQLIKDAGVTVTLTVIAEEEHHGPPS
Sequence of GST-BAI-1 Associated Protein PDZ domain 5 (Homo sapiens (Human)), Q96QZ7 (Q96QZ7 988-1099): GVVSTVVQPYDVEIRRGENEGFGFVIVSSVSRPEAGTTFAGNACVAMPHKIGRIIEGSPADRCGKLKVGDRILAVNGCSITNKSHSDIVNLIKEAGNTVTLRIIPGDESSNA
Sequence of GST-KIAA807 [GST: P08515] (P08515 whole entry, the tested form may be a part): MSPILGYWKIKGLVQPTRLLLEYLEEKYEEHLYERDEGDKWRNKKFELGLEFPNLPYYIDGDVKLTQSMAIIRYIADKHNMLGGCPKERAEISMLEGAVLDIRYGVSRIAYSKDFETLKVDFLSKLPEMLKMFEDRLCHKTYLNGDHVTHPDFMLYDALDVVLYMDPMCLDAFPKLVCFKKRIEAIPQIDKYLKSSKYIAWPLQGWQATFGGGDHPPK
Sequence of GST-TAX IP2 PDZ domain 1 [GST: P08515] (P08515 whole entry, the tested form may be a part): as above
Sequence of GST-KIAA1634 PDZ domain 1 (Homo sapiens (Human)), Q5TCQ9 (Q5TCQ9 401-502): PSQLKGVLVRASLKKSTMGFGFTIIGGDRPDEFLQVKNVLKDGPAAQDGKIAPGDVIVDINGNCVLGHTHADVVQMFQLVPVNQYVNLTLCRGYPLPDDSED

Kd [1]: 1000 nM
Classification [2]: 3 A450 class
Classification [3]: 1 A450 class
Classification [4]: 5 A450 class
Classification [5]: 1 A450 class
Classification [6]: 1 A450 class
Classification [7]: 2 A450 class
Classification [8]: 4 A450 class
Classification [9]: 3 A450 class
Classification [10]: 2 A450 class
Classification [11]: 4 A450 class
Classification [12]: 1 A450 class
Classification [13]: 1 A450 class
Classification [14]: 5 A450 class
Classification [15]: 1 A450 class
Classification [16]: 4 A450 class
Classification [17]: 4 A450 class
Kd [18]: 8 µM
Kd [19]: 7 µM
Binder: AGAVRTPLSQVNKVWDQSSV (modifications not checked) [CITRON protein]

Classification [20]: 1 A450 class
Classification [21]: 1 A450 class
Classification [22]: 1 A450 class
Classification [23]: 1 A450 class
Classification [24]: 1 A450 class
Classification [14]: 1 A450 class
Binder: ERASSVYTRSTGEQEISVGL (modifications not checked) [CKR5 (HIV Co-receptor)]

— patent US20050282743A1, “Molecular interactions in cells” (Arbor Vita Corporation, priority 2001, published 2005)
